# Numbered stars: 1 amine (or outer) side, 2 acyl side, 3 side chain; on linkers, the order of the positions; unused ones are H or OH. Square brackets hold non-standard residues; d marks the D form. Side chains are listed from the residue outwards. * marks the point of attachment. C18 diacid = O=C(O)CCCCCCCCCCCCCCCCC(=O)*; γGlu = O=C(O)[C@H](CCC(=O)[*:2])N[*:1]; Aib = CC(C)(N)C(=O)O
# B1: Compound 11 (peptide)
# peptide: H-H[Aib]EGSFTSELATILDK([γGlu-C18 diacid])LAARDFIAWLIEHKITD-OH
# SMILES: CC[C@H](C)[C@H](NC(=O)[C@H](Cc1ccccc1)NC(=O)[C@H](CC(=O)O)NC(=O)[C@H](CCCNC(=N)N)NC(=O)[C@H](C)NC(=O)[C@H](C)NC(=O)[C@H](CC(C)C)NC(=O)[C@H](CCCCNC(=O)CC[C@H](NC(=O)CCCCCCCCCCCCCCCCC(=O)O)C(=O)O)NC(=O)[C@H](CC(=O)O)NC(=O)[C@H](CC(C)C)NC(=O)[C@@H](NC(=O)[C@@H](NC(=O)[C@H](C)NC(=O)[C@H](CC(C)C)NC(=O)[C@H](CCC(=O)O)NC(=O)[C@H](CO)NC(=O)[C@@H](NC(=O)[C@H](Cc1ccccc1)NC(=O)[C@H](CO)NC(=O)CNC(=O)[C@H](CCC(=O)O)NC(=O)C(C)(C)NC(=O)[C@@H](N)Cc1c[nH]cn1)[C@@H](C)O)[C@@H](C)O)[C@@H](C)CC)C(=O)N[C@@H](C)C(=O)N[C@@H](Cc1c[nH]c2ccccc12)C(=O)N[C@@H](CC(C)C)C(=O)N[C@H](C(=O)N[C@@H](CCC(=O)O)C(=O)N[C@@H](Cc1c[nH]cn1)C(=O)N[C@@H](CCCCN)C(=O)N[C@H](C(=O)N[C@H](C(=O)N[C@@H](CC(=O)O)C(=O)O)[C@@H](C)O)[C@@H](C)CC)[C@@H](C)CC
# B2: Compound 9 (peptide)
# peptide: H-H[Aib]EGTFTSELATILDGK([γGlu-C18 diacid])AARDFIAWLIEHKITD-OH
# SMILES: CC[C@H](C)[C@H](NC(=O)[C@H](Cc1ccccc1)NC(=O)[C@H](CC(=O)O)NC(=O)[C@H](CCCNC(=N)N)NC(=O)[C@H](C)NC(=O)[C@H](C)NC(=O)[C@H](CCCCNC(=O)CC[C@H](NC(=O)CCCCCCCCCCCCCCCCC(=O)O)C(=O)O)NC(=O)CNC(=O)[C@H](CC(=O)O)NC(=O)[C@H](CC(C)C)NC(=O)[C@@H](NC(=O)[C@@H](NC(=O)[C@H](C)NC(=O)[C@H](CC(C)C)NC(=O)[C@H](CCC(=O)O)NC(=O)[C@H](CO)NC(=O)[C@@H](NC(=O)[C@H](Cc1ccccc1)NC(=O)[C@@H](NC(=O)CNC(=O)[C@H](CCC(=O)O)NC(=O)C(C)(C)NC(=O)[C@@H](N)Cc1c[nH]cn1)[C@@H](C)O)[C@@H](C)O)[C@@H](C)O)[C@@H](C)CC)C(=O)N[C@@H](C)C(=O)N[C@@H](Cc1c[nH]c2ccccc12)C(=O)N[C@@H](CC(C)C)C(=O)N[C@H](C(=O)N[C@@H](CCC(=O)O)C(=O)N[C@@H](Cc1c[nH]cn1)C(=O)N[C@@H](CCCCN)C(=O)N[C@H](C(=O)N[C@H](C(=O)N[C@@H](CC(=O)O)C(=O)O)[C@@H](C)O)[C@@H](C)CC)[C@@H](C)CC
# B3: Compound 7 (peptide)
# peptide: H-H[Aib]EGTFSSELATILDGK([γGlu-C18 diacid])AARDFIAWLIEHKITD-OH
# SMILES: CC[C@H](C)[C@H](NC(=O)[C@H](Cc1ccccc1)NC(=O)[C@H](CC(=O)O)NC(=O)[C@H](CCCNC(=N)N)NC(=O)[C@H](C)NC(=O)[C@H](C)NC(=O)[C@H](CCCCNC(=O)CC[C@H](NC(=O)CCCCCCCCCCCCCCCCC(=O)O)C(=O)O)NC(=O)CNC(=O)[C@H](CC(=O)O)NC(=O)[C@H](CC(C)C)NC(=O)[C@@H](NC(=O)[C@@H](NC(=O)[C@H](C)NC(=O)[C@H](CC(C)C)NC(=O)[C@H](CCC(=O)O)NC(=O)[C@H](CO)NC(=O)[C@H](CO)NC(=O)[C@H](Cc1ccccc1)NC(=O)[C@@H](NC(=O)CNC(=O)[C@H](CCC(=O)O)NC(=O)C(C)(C)NC(=O)[C@@H](N)Cc1c[nH]cn1)[C@@H](C)O)[C@@H](C)O)[C@@H](C)CC)C(=O)N[C@@H](C)C(=O)N[C@@H](Cc1c[nH]c2ccccc12)C(=O)N[C@@H](CC(C)C)C(=O)N[C@H](C(=O)N[C@@H](CCC(=O)O)C(=O)N[C@@H](Cc1c[nH]cn1)C(=O)N[C@@H](CCCCN)C(=O)N[C@H](C(=O)N[C@H](C(=O)N[C@@H](CC(=O)O)C(=O)O)[C@@H](C)O)[C@@H](C)CC)[C@@H](C)CC
# B4: Compound 12 (peptide)
# peptide: H-H[Aib]EGTFTSELATILDK([γGlu-C18 diacid])LAARDFIAWLIEHKITD-OH
# SMILES: CC[C@H](C)[C@H](NC(=O)[C@H](Cc1ccccc1)NC(=O)[C@H](CC(=O)O)NC(=O)[C@H](CCCNC(=N)N)NC(=O)[C@H](C)NC(=O)[C@H](C)NC(=O)[C@H](CC(C)C)NC(=O)[C@H](CCCCNC(=O)CC[C@H](NC(=O)CCCCCCCCCCCCCCCCC(=O)O)C(=O)O)NC(=O)[C@H](CC(=O)O)NC(=O)[C@H](CC(C)C)NC(=O)[C@@H](NC(=O)[C@@H](NC(=O)[C@H](C)NC(=O)[C@H](CC(C)C)NC(=O)[C@H](CCC(=O)O)NC(=O)[C@H](CO)NC(=O)[C@@H](NC(=O)[C@H](Cc1ccccc1)NC(=O)[C@@H](NC(=O)CNC(=O)[C@H](CCC(=O)O)NC(=O)C(C)(C)NC(=O)[C@@H](N)Cc1c[nH]cn1)[C@@H](C)O)[C@@H](C)O)[C@@H](C)O)[C@@H](C)CC)C(=O)N[C@@H](C)C(=O)N[C@@H](Cc1c[nH]c2ccccc12)C(=O)N[C@@H](CC(C)C)C(=O)N[C@H](C(=O)N[C@@H](CCC(=O)O)C(=O)N[C@@H](Cc1c[nH]cn1)C(=O)N[C@@H](CCCCN)C(=O)N[C@H](C(=O)N[C@H](C(=O)N[C@@H](CC(=O)O)C(=O)O)[C@@H](C)O)[C@@H](C)CC)[C@@H](C)CC
# B5: Compound 8 (peptide)
# peptide: H-H[Aib]EGSFTSELATILDGK([γGlu-C18 diacid])AARDFIAWLIEHKITD-OH
# SMILES: CC[C@H](C)[C@H](NC(=O)[C@H](Cc1ccccc1)NC(=O)[C@H](CC(=O)O)NC(=O)[C@H](CCCNC(=N)N)NC(=O)[C@H](C)NC(=O)[C@H](C)NC(=O)[C@H](CCCCNC(=O)CC[C@H](NC(=O)CCCCCCCCCCCCCCCCC(=O)O)C(=O)O)NC(=O)CNC(=O)[C@H](CC(=O)O)NC(=O)[C@H](CC(C)C)NC(=O)[C@@H](NC(=O)[C@@H](NC(=O)[C@H](C)NC(=O)[C@H](CC(C)C)NC(=O)[C@H](CCC(=O)O)NC(=O)[C@H](CO)NC(=O)[C@@H](NC(=O)[C@H](Cc1ccccc1)NC(=O)[C@H](CO)NC(=O)CNC(=O)[C@H](CCC(=O)O)NC(=O)C(C)(C)NC(=O)[C@@H](N)Cc1c[nH]cn1)[C@@H](C)O)[C@@H](C)O)[C@@H](C)CC)C(=O)N[C@@H](C)C(=O)N[C@@H](Cc1c[nH]c2ccccc12)C(=O)N[C@@H](CC(C)C)C(=O)N[C@H](C(=O)N[C@@H](CCC(=O)O)C(=O)N[C@@H](Cc1c[nH]cn1)C(=O)N[C@@H](CCCCN)C(=O)N[C@H](C(=O)N[C@H](C(=O)N[C@@H](CC(=O)O)C(=O)O)[C@@H](C)O)[C@@H](C)CC)[C@@H](C)CC
# B6: Compound 10 (peptide)
# peptide: H-H[Aib]EGTFSSELATILDK([γGlu-C18 diacid])LAARDFIAWLIEHKITD-OH
# SMILES: CC[C@H](C)[C@H](NC(=O)[C@H](Cc1ccccc1)NC(=O)[C@H](CC(=O)O)NC(=O)[C@H](CCCNC(=N)N)NC(=O)[C@H](C)NC(=O)[C@H](C)NC(=O)[C@H](CC(C)C)NC(=O)[C@H](CCCCNC(=O)CC[C@H](NC(=O)CCCCCCCCCCCCCCCCC(=O)O)C(=O)O)NC(=O)[C@H](CC(=O)O)NC(=O)[C@H](CC(C)C)NC(=O)[C@@H](NC(=O)[C@@H](NC(=O)[C@H](C)NC(=O)[C@H](CC(C)C)NC(=O)[C@H](CCC(=O)O)NC(=O)[C@H](CO)NC(=O)[C@H](CO)NC(=O)[C@H](Cc1ccccc1)NC(=O)[C@@H](NC(=O)CNC(=O)[C@H](CCC(=O)O)NC(=O)C(C)(C)NC(=O)[C@@H](N)Cc1c[nH]cn1)[C@@H](C)O)[C@@H](C)O)[C@@H](C)CC)C(=O)N[C@@H](C)C(=O)N[C@@H](Cc1c[nH]c2ccccc12)C(=O)N[C@@H](CC(C)C)C(=O)N[C@H](C(=O)N[C@@H](CCC(=O)O)C(=O)N[C@@H](Cc1c[nH]cn1)C(=O)N[C@@H](CCCCN)C(=O)N[C@H](C(=O)N[C@H](C(=O)N[C@@H](CC(=O)O)C(=O)O)[C@@H](C)O)[C@@H](C)CC)[C@@H](C)CC
# Molecular target: T1, human GLP-2 receptor (hGLP2-R) (human, UniProt O95838)
# T1 sequence: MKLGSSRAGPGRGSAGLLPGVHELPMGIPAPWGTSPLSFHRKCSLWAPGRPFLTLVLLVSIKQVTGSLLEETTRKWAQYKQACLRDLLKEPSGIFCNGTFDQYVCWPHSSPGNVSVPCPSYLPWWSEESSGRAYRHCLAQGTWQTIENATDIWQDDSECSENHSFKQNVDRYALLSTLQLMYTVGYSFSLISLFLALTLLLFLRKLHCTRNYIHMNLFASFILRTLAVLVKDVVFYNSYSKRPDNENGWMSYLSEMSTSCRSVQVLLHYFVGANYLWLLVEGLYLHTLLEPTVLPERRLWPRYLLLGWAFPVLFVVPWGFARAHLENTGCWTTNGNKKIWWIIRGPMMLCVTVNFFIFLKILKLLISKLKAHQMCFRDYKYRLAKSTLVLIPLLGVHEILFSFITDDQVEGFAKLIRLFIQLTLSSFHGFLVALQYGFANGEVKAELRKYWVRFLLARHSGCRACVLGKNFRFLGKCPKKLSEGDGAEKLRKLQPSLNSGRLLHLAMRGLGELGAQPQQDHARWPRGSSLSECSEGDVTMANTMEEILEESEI
# Test: cell-based or functional assay
row,Binder,"EC50 GLP-2 (nM), cAMP AlphaScreen [nM]"
1,B1,0.085
2,B2,0.056
3,B3,0.019
4,B4,0.11
5,B5,0.039
6,B6,0.087

# Molecular target: human glucagon-like peptide 1 receptor (GLP-1R) (human, UniProt P43220)
# Test: cell-based or functional assay
row,Binder,"EC50 GLP-1 (nM), cAMP AlphaScreen [nM]"
1,B1,0.32
2,B2,0.056
3,B3,0.92
4,B4,0.14
5,B5,0.22
6,B6,1.8

# Reference: patent US20250073311A1, “DOSAGE REGIME” (ZEALAND PHARMA A/S, priority 2021, published 2025)
